The results in this text go back to paper PMC6620310, “A ubiquitin-like domain is required for stabilizing the N-terminal ATPase module of human SMCHD1” (Communications Biology, 2019).

First the molecules themselves.
B1: SMCHD1(24–580) wild-type [human] / itself (parent complex)
chain: GHRTVYLFDRREKESELGDRPLQVGERSDYAGFRACVCQTLGISPEEKFVITTTSRKEITCDNFDETVKDGVTLYLLQSVNQLLLTATKERIDFLPHYDTLVKSGMYEYYASEGQNPLPFALAELIDNSLSATSRNIGVRRIQIKLLFDETQGKPAVAVIDNGRGMTSKQLNNWAVYRLSKFTRQGDFESDHSGYVRPVPVPRSLNSDISYFGVGGKQAVFFVGQSARMISKPADSQDVHELVLSKEDFEKKEKNKEAIYSGYIRNRKPSDSVHITNDDERFLHHLIIEEKEKDSFTAVVITGVQPEHIQYLKNYFHLWTRQLAHIYHYYIHGPKGNEIRTSKEVEPFNNIDIEISMFEKGKVPKIVNLREIQDDMQTLYVNTAADSFEFKAHVEGDGVVEGIIRYHPFLYDRETYPDDPCFPSKLKDEDDEDDCFILEKAARGKRPIFECFWNGRLIPYTSVEDFDWCTPPKKRGLAPIECYNRISGALFTNDKFQVSTNKLTFMDLELKLKDKNTLFTRILNGQEQRMKIDREFALWLKDCHEKYDKQIKFTLFK

The assay covers variants of B1. As to the kind of experiment: native PAGE; parent: 0.098; read off a plot.
For the variant chain 1 G114E, the screen value is roughly 0.15.

Consider chain 1 E450Q, for which the screen value was roughly 0.12.

In the case of chain 1 E450G, the screen value is roughly 0.2.

On to chain 1 Y260C, for which the screen value is roughly 0.012.

chain 1 Q322R: the screen value was roughly 0.11.

Take chain 1 S112C: the screen value is roughly 0.096.

Take chain 1 L171F: the screen value is roughly 0.008.

For chain 1 N116H, the screen value is roughly 0.093.

As to chain 1 G455E, the screen value was roughly 0.01.

With chain 1 T500K, the screen value is roughly 0.11.

Regarding chain 1 H325R, the screen value was roughly 0.12.
